Data as given in the RNAGym collection of RNA variant scans (doi:10.7554/elife.90254).

B1: OR4K15 (parent)
chain: GUUAACGGUCAUAGGCCAUGGAAACUAGGAGCACCAUUUCGCUGCCAGUGAAGAAAUGAACAAAGAAAAUCUGGGCCAGGCAGGCAUCAAAAGAAAUAGUCUUGCGCUCAACCAGAAAGUCUGUAAUCAUUUUAAGGGUA

Variants of: B1
Test: self-cleavage, relative activity (ratio to wild type); higher = more cleavage; in vitro, sequencing; the parent is a self-cleaving ribozyme

Point of comparison: C25A A33G, self-cleavage 0.9. Against it:
- A63G C101A — lower, 0.32
- C40U A89G — higher, 1.33
- U12C A89C — higher, 1.09
- A95U A111G — lower, 0.05
- A18C U57C — lower, 0
- U132C — higher, 1.05
- A18C U103C — lower, 0.86
- U12A A63G — lower, 0.6
- G1A A4G — lower, 0.54
- A54U A82C — lower, 0.13
- C25U A94U — higher, 1.62
- C32A A47U — higher, 1.05
- C107U A118U — lower, 0.01
- A13G U70G — higher, 1.1
- G15A A66U — higher, 1.18
- A33G U100A — lower, 0.28
- U43C A67G — higher, 1.39
- G1U U39A — higher, 1.74
- A66G U103A — lower, 0.32
- C10U U100C — higher, 2.44
- A117U U122C — higher, 1.24
- A95U A116G — higher, 1
- U103C U139C — higher, 1.15
- A30G C113U — lower, 0.07
- A23G U26C — higher, 1.42
- A18G U39C — higher, 1.77
- A94C A96G — higher, 0.94
- U38C A51U — higher, 1.24
- C46U G84A — higher, 1.72
- G119U U132C — higher, 1.41
- A24G A111C — lower, 0.02
- A90G A118G — lower, 0.47
- A63U A118G — higher, 1.71
- G73A A78G — lower, 0.21
- U3A A64G — higher, 1.11
- G44A A89G — higher, 1.14
- U70A A111G — lower, 0.04
- U26A — higher, 1.07
- G80U U100C — lower, 0.16
- A116G U127C — lower, 0.31
- A36C U38C — higher, 1.43
- G75U A135G — lower, 0.16
- A90U A114U — lower, 0.04
- A117G A140U — higher, 1.12
- G31U A63G — higher, 2.02
- G119A U132C — higher, 2.46
- U2G A135G — lower, 0.69
- A135C — lower, 0.69
- U37A U130C — lower, 0.61
- U19A U38C — higher, 1.98
- U9A A66G — higher, 1
- G80C — lower, 0.07
- A33G U102A — lower, 0.34
- A13U — higher, 1.11
- U37C A55U — higher, 1.57
- A82C A118G — lower, 0.11
- C10G A60G — lower, 0.77
- A82U U108A — lower, 0.03
- A36G A82C — lower, 0.2
- C45A G48A — higher, 1.5
- U37C A89C — higher, 1.31
- U97C A134U — higher, 1.69
- A13G C61U — lower, 0.68
- A78U U127C — lower, 0.07
- A47G A110C — lower, 0.1
- A51G U102C — higher, 2.58
- U38G A54G — higher, 1.38
- U38A U87A — higher, 2.41
- G8A A117U — higher, 1.67
- A95G A117U — higher, 1.7
- A23G U39A — higher, 0.98
- A5G U120C — lower, 0.86
- C61U U72A — lower, 0.19
- U12G U37C — higher, 1.48
- U19A A24G — lower, 0.29
- A89G A135U — higher, 1.15
- A22G C112A — lower, 0.05
- C113U A117G — lower, 0.08
- A24G A95U — higher, 1.16
- A62G A126U — higher, 1.6
- A56U U103A — lower, 0.25
- G48C A55G — higher, 1.64
- A13G U37A — lower, 0.82
- A33G U97A — higher, 1.18
- A54U A116U — lower, 0.42
- A30U U87C — higher, 0.96
- A82U U124C — lower, 0.18
- A60G U131C — lower, 0.15
- U100C U102C — higher, 1.62
- G31A U108C — lower, 0.03
- A27G U133C — higher, 1.58
- A30G C61U — lower, 0.84
- U26C A114G — lower, 0.04
- A36G U37C — higher, 1.71
- A24G G58A — lower, 0.4
- G7U A23G — higher, 1.04
- U120C U139G — higher, 1.36
- A114G A134U — lower, 0.23
- A30U U97C — lower, 0.83
- A47U A111U — lower, 0.06
- G14A A33U — higher, 1.16
- U43A A78G — lower, 0.14
- A89G G106A — lower, 0.01
- C109A A114G — lower, 0.11
- A11C U103C — higher, 0.98
- A117G U127C — lower, 0.77
- C71A A82G — lower, 0.26
- A64G U97C — higher, 1.63
- C17A A59U — higher, 1.14
- A13G A55G — higher, 0.97
- A78U U108C — lower, 0.01
- C46U A82C — lower, 0.27
- U2C A98G — lower, 0.57
- G41U A94U — higher, 1.48
- U19C U100A — lower, 0.71
- A30U U57A — higher, 1.02
- U43C A52G — higher, 1.49
- A13U A60U — higher, 2.26
- U9C U57C — higher, 1.07
- A95G G104A — lower, 0.08
- A23G A78G — lower, 0.29
- A30U A95G — lower, 0.89
- U39C A55G — higher, 1.66
- A27G U131G — higher, 1.09
- C88U U127C — higher, 2.09
- U49C G99U — lower, 0.28
- U87C A114U — lower, 0.09
- A66G U139A — higher, 1.72
- A27G A66C — higher, 1.24
- A92U A114G — lower, 0.17
- A36U U108A — lower, 0
- U72A A110U — lower, 0.29
- A78C A90G — lower, 0.16
- C71U U102C — lower, 0.66
- G15A A62G — lower, 0.1
- U127C G136A — lower, 0.59
- U38C A55G — higher, 0.93
- U43C A64U — higher, 1.82
- U12A A118G — higher, 1.04
- U2A A52G — lower, 0.8
- U120C U131A — lower, 0.52
- G44A U133C — higher, 1.78
- A69C G84U — lower, 0.82
- A47C A64U — higher, 1.56
- U2C A66C — lower, 0.66
- A94G A116U — lower, 0.38
- A67G G80A — lower, 0.04
- A5U A95G — higher, 1.59
- A63U A96G — higher, 1.74
- U19A A82G — lower, 0.68
- A52U U100C — higher, 2.57
- A66G U120G — higher, 2.47
- A92G U132A — higher, 1.23
- A5U U26C — lower, 0.57
- G41A A96G — higher, 1.7
- A91U U97C — higher, 2.02
- U19C A114C — lower, 0.06
- A13G A135C — lower, 0.49
- A59G U70C — lower, 0.84
- U38C G83U — lower, 0.43
- A23U A68G — higher, 1.45
- A55G G74A — lower, 0.31
- U38C A63G — higher, 1.7
- A5G A60U — higher, 1.08
- A90G A110U — higher, 0.94
- A18U U130C — higher, 1.37
